{"source": "the Human Domainome abundance scans (Beltran et al. 2025)", "parents": {"B1": {"name": "Membrane-associated guanylate kinase, WW and PDZ domain-containing protein 3, residues 287 to 329; numbered along this chain, Q5TCQ9 (parent)", "chain": "MRDETLEPLPKNWEMAYTDTGMIYFIDHNTKTTTWLDPRLCKK"}}, "note": "± gives the uncertainty stated by the source."}
{"variants_of": "B1", "assay": "abundance fitness (aPCA) (normalised: wild type 0, dead -1); higher = more abundant; growth selection in yeast, the domain comes from the species named", "conditions": "Homo sapiens"}
{"variant": "P38T", "abundance fitness": "-0.897 ± 0.068"}
{"variant": "P38D", "abundance fitness": "-0.854 ± 0.064"}
{"variant": "P38K", "abundance fitness": "-0.994 ± 0.077"}
{"variant": "L40T", "abundance fitness": "-0.085 ± 0.064"}
{"variant": "L40Y", "abundance fitness": "-0.193 ± 0.065"}
{"variant": "L40A", "abundance fitness": "-0.019 ± 0.038"}
{"variant": "L40V", "abundance fitness": "0 ± 0.034"}
{"variant": "L40K", "abundance fitness": "0.016 ± 0.04"}
{"variant": "L40Q", "abundance fitness": "-0.014 ± 0.037"}
{"variant": "L40G", "abundance fitness": "-0.028 ± 0.027"}
{"variant": "L40D", "abundance fitness": "-0.039 ± 0.045"}
{"variant": "L40E", "abundance fitness": "0.022 ± 0.037"}
{"variant": "L40M", "abundance fitness": "-0.069 ± 0.038"}
{"variant": "L40N", "abundance fitness": "0.041 ± 0.071"}
{"variant": "L40S", "abundance fitness": "-0.053 ± 0.033"}
{"variant": "L40P", "abundance fitness": "-0.118 ± 0.047"}
{"variant": "L40R", "abundance fitness": "-0.02 ± 0.03"}
{"variant": "L40I", "abundance fitness": "-0.102 ± 0.081"}
{"variant": "L40C", "abundance fitness": "-0.033 ± 0.035"}
{"variant": "L36Y", "abundance fitness": "-0.077 ± 0.081"}
{"variant": "L36Q", "abundance fitness": "-0.03 ± 0.036"}
{"variant": "L36W", "abundance fitness": "-0.061 ± 0.033"}
{"variant": "L36T", "abundance fitness": "-0.078 ± 0.037"}
{"variant": "L36R", "abundance fitness": "-0.013 ± 0.028"}
{"variant": "L36V", "abundance fitness": "-0.019 ± 0.039"}
{"variant": "D37Q", "abundance fitness": "-0.486 ± 0.048"}
{"variant": "D37H", "abundance fitness": "-0.166 ± 0.052"}
{"variant": "D37A", "abundance fitness": "-0.436 ± 0.03"}
{"variant": "D37C", "abundance fitness": "-0.459 ± 0.044"}
{"variant": "D37V", "abundance fitness": "-0.926 ± 0.043"}
{"variant": "D37W", "abundance fitness": "-0.616 ± 0.061"}
{"variant": "D37R", "abundance fitness": "-0.263 ± 0.029"}
{"variant": "D37N", "abundance fitness": "-0.235 ± 0.049"}
{"variant": "D37K", "abundance fitness": "-0.407 ± 0.075"}
{"variant": "D37G", "abundance fitness": "-0.557 ± 0.032"}
{"variant": "D37E", "abundance fitness": "-0.556 ± 0.042"}
{"variant": "D37P", "abundance fitness": "-0.168 ± 0.037"}
{"variant": "D37I", "abundance fitness": "-1.04 ± 0.2"}
{"variant": "D37M", "abundance fitness": "-1.02 ± 0.1"}
{"variant": "D37S", "abundance fitness": "-0.188 ± 0.032"}
{"variant": "D37Y", "abundance fitness": "-0.731 ± 0.11"}
{"variant": "K43V", "abundance fitness": "-0.045 ± 0.065"}
{"variant": "K43A", "abundance fitness": "0.011 ± 0.072"}
{"variant": "K43C", "abundance fitness": "-0.065 ± 0.045"}
{"variant": "K43Q", "abundance fitness": "0.136 ± 0.15"}
{"variant": "K43I", "abundance fitness": "-0.144 ± 0.047"}
{"variant": "K43S", "abundance fitness": "0.002 ± 0.04"}
{"variant": "K43L", "abundance fitness": "-0.011 ± 0.11"}
{"variant": "K43G", "abundance fitness": "0.03 ± 0.043"}
{"variant": "K43N", "abundance fitness": "-0.062 ± 0.076"}
{"variant": "K43E", "abundance fitness": "0.031 ± 0.07"}
{"variant": "K43W", "abundance fitness": "-0.044 ± 0.047"}
{"variant": "K43H", "abundance fitness": "-0.036 ± 0.05"}
{"variant": "K43P", "abundance fitness": "0.042 ± 0.046"}
{"variant": "K42W", "abundance fitness": "-0.115 ± 0.042"}
{"variant": "K42D", "abundance fitness": "0.002 ± 0.04"}
{"variant": "K42Y", "abundance fitness": "-0.223 ± 0.06"}
{"variant": "K42L", "abundance fitness": "-0.086 ± 0.032"}
{"variant": "K42M", "abundance fitness": "-0.1 ± 0.047"}
{"variant": "K42C", "abundance fitness": "-0.146 ± 0.062"}
{"variant": "K42R", "abundance fitness": "-0.038 ± 0.033"}
{"variant": "K42Q", "abundance fitness": "-0.056 ± 0.04"}
{"variant": "K42T", "abundance fitness": "-0.029 ± 0.039"}
{"variant": "K42G", "abundance fitness": "-0.014 ± 0.029"}
{"variant": "K42N", "abundance fitness": "-0.168 ± 0.15"}
{"variant": "K42I", "abundance fitness": "-0.097 ± 0.07"}
{"variant": "K42A", "abundance fitness": "0.018 ± 0.027"}
{"variant": "K42E", "abundance fitness": "0.056 ± 0.044"}
{"variant": "K42S", "abundance fitness": "-0.063 ± 0.035"}
{"variant": "K42V", "abundance fitness": "-0.099 ± 0.033"}
{"variant": "K42F", "abundance fitness": "-0.242 ± 0.048"}
{"variant": "K42H", "abundance fitness": "-0.081 ± 0.045"}
{"variant": "K42P", "abundance fitness": "-0.094 ± 0.046"}
{"variant": "R39P", "abundance fitness": "-0.516 ± 0.035"}
{"variant": "R39I", "abundance fitness": "-0.332 ± 0.075"}
{"variant": "R39M", "abundance fitness": "-0.33 ± 0.034"}
{"variant": "R39N", "abundance fitness": "-0.476 ± 0.17"}
{"variant": "R39S", "abundance fitness": "-0.259 ± 0.042"}
{"variant": "R39F", "abundance fitness": "-0.635 ± 0.11"}
{"variant": "R39K", "abundance fitness": "-0.309 ± 0.061"}
{"variant": "R39Q", "abundance fitness": "-0.417 ± 0.045"}
{"variant": "R39D", "abundance fitness": "-0.317 ± 0.044"}
{"variant": "R39G", "abundance fitness": "-0.314 ± 0.029"}
{"variant": "R39C", "abundance fitness": "-0.322 ± 0.041"}
{"variant": "R39L", "abundance fitness": "-0.349 ± 0.038"}
{"variant": "R39A", "abundance fitness": "-0.233 ± 0.04"}
{"variant": "R39V", "abundance fitness": "-0.301 ± 0.032"}
{"variant": "R39E", "abundance fitness": "-0.244 ± 0.038"}
{"variant": "R39T", "abundance fitness": "-0.22 ± 0.047"}
